Assays:
[1] = target: growth-associated protein GAP-43 (mouse (endogenous in N1E-115)) (UniProt P06837); test: cross-linking + co-IP; 1 mM DSP added to living [35S]-labeled differentiated N1E-115 cells (15 min, room temperature, KRH); lysis in SDS, then NP-40 lysis buffer; 100,000 × g supernatant; monoclonal anti-GAP-43 (clone 91E12) and protein G plus agarose; crosslinks cleaved; two-dimensional gel, fluorography; spots cut out and counted, calmodulin cpm divided by 9/4
[2] = target: growth-associated protein GAP-43 (mouse (endogenous in N1E-115)) (UniProt P06837); test: cross-linking + co-IP; cells lysed in 1% NP-40 substitute buffer first; 1 mM DSP added to the low-speed supernatant (15 min, room temperature); glycine and SDS added; 100,000 × g supernatant; monoclonal anti-GAP-43; two-dimensional gel; spots counted, calmodulin cpm divided by 9/4

Chain of UniProt P06837 (P06837 whole entry): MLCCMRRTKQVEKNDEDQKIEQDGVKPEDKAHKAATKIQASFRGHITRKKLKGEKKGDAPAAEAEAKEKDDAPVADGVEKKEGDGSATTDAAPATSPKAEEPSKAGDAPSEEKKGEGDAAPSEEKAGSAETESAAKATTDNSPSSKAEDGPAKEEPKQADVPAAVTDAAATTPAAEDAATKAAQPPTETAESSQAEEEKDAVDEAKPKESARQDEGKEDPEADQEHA

calmodulin (from UniProt P0DP26 1-149) (natural protein)
calmodulin as percent of the GAP-43 in the immunoprecipitate [1]: 14%
percent of the total GAP-43 crosslinked to calmodulin [1]: 25%
radioactivity of calmodulin in the anti-GAP-43 immunoprecipitate (divided by 9/4) [1]: 278 cpm
calmodulin as percent of the GAP-43 in the immunoprecipitate [2]: 39%
radioactivity of calmodulin in the anti-GAP-43 immunoprecipitate (divided by 9/4) [2]: 643 cpm
